Assay results published in the supplement of paper PMC10567573.

B1: ZMYND11 (parent)
chain: YCSIKCQQEHWHAEHKRTCRRKR

Variants of: B1
Experiment: protein stability index of a GFP-peptide fusion (GPS, HEK-293T) (PSI 1-6); higher = more stable
Settings: c terminus: native
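Note: lentivirally expressed fusions sorted by FACS into six bins by GFP to DsRed ratio, PSI derived from sequencing read proportions per bin multiplied by bin number.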

Row | Variant | protein stability index
1 | YCSIKCQQEHWHAEHKRTCRMKR [R21M] | 2.4
2 | YCSIKCQQEHWHAEHKRTCRWKR [R21W] | 1.94
3 | YCSIKCQQEHWHAEHKRTCRIKR [R21I] | 2.99
4 | YCSIKCQQEHWHAEHKRTCRVKR [R21V] | 2.61
5 | YCSIKCQQEHWHAEHKRTCRYKR [R21Y] | 2.2
6 | YCSIKCQQEHWHAEHKRTCRKKR [R21K] | 2.92
7 | YCSIKCQQEHWHAEHKRTCREKR [R21E] | 2.43
8 | YCSIKCQQEHWHAEHKRTCRHKR [R21H] | 1.97
9 | YCSIKCQQEHWHAEHKRTCRCKR [R21C] | 2.15
10 | YCSIKCQQEHWHAEHKRTCRFKR [R21F] | 2.45
11 | YCSIKCQQEHWHAEHKRTCRDKR [R21D] | 1.96
12 | YCSIKCQQEHWHAEHKRTCRTKR [R21T] | 2.41
13 | YCSIKCQQEHWHAEHKRTCRGKR [R21G] | 2.84
14 | YCSIKCQQEHWHAEHKRTCRPKR [R21P] | 1.52
15 | YCSIKCQQEHWHAEHKRTCRQKR [R21Q] | 2.04
16 | YCSIKCQQEHWHAEHKRTCRSKR [R21S] | 3.06
17 | YCSIKCQQEHWHAEHKRTCRAKR [R21A] | 2.2
18 | YCSIKCQQEHWHAEHKRTCRNKR [R21N] | 1.98
19 | YCSIKCQQEHWHAEHKRTCRLKR [R21L] | 2.2
20 | YCSIKCQQEHWHAEHKNTCRRKR [R17N] | 2.28
21 | YCSIKCQQEHWHAEHKYTCRRKR [R17Y] | 1.82
22 | YCSIKCQQEHWHAEHKETCRRKR [R17E] | 2.65
23 | YCSIKCQQEHWHAEHKCTCRRKR [R17C] | 3.29
24 | YCSIKCQQEHWHAEHKLTCRRKR [R17L] | 2.25
25 | YCSIKCQQEHWHAEHKKTCRRKR [R17K] | 2.27
26 | YCSIKCQQEHWHAEHKFTCRRKR [R17F] | 1.8

Row | Variant | protein stability index
27 | YCSIKCQQEHWHAEHKITCRRKR [R17I] | 2.58
28 | YCSIKCQQEHWHAEHKPTCRRKR [R17P] | 2.89
29 | YCSIKCQQEHWHAEHKATCRRKR [R17A] | 2.61
30 | YCSIKCQQEHWHAEHKHTCRRKR [R17H] | 2.44
31 | YCSIKCQQEHWHAEHKMTCRRKR [R17M] | 2.32
32 | YCSIKCQQEHWHAEHKWTCRRKR [R17W] | 1.56
33 | YCSIKCQQEHWHAEHKTTCRRKR [R17T] | 2.25
34 | YCSIKCQQEHWHAEHKDTCRRKR [R17D] | 2.63
35 | YCSIKCQQEHWHAEHKVTCRRKR [R17V] | 2.55
36 | YCSIKCQQEHWHAEHKSTCRRKR [R17S] | 2.77
37 | YCSIKCQQEHWHAEHKQTCRRKR [R17Q] | 2.39
38 | YCSIKCQQEHWHAEHWRTCRRKR [K16W] | 1.74
39 | YCSIKCQQEHWHAEHLRTCRRKR [K16L] | 2.42
40 | YCSIKCQQEHWHAEHFRTCRRKR [K16F] | 1.95
41 | YCSIKCQQEHWHAEHARTCRRKR [K16A] | 2.53
42 | YCSIKCQQEHWHAEHRRTCRRKR [K16R] | 1.76
43 | YCSIKCQQEHWHAEHHRTCRRKR [K16H] | 2.84
44 | YCSIKCQQEHWHAEHNRTCRRKR [K16N] | 2.11
45 | YCSIKCQQEHWHAEHGRTCRRKR [K16G] | 2.83
46 | YCSIKCQQEHWHAEHQRTCRRKR [K16Q] | 2.34
47 | YCSIKCQQEHWHAEHSRTCRRKR [K16S] | 2.56
48 | YCSIKCQQEHWHAEHTRTCRRKR [K16T] | 2.71
49 | YCSIKCQQEHWHAEHIRTCRRKR [K16I] | 2.18
50 | YCSIKCQQEHWHAEHMRTCRRKR [K16M] | 2.16
51 | YCSIKCQQEHWHAEHYRTCRRKR [K16Y] | 1.62
52 | YCSIKCQQEHWHAEHCRTCRRKR [K16C] | 2.74

Row | Variant | protein stability index
53 | YCSIKCQQEHWHAEHDRTCRRKR [K16D] | 2.43
54 | YCSIKCQQEHWHAEHERTCRRKR [K16E] | 2.46
55 | YCSIKCQQEHWHAEHVRTCRRKR [K16V] | 2.39
56 | YCSIKCQQEHWHAEHKRDCRRKR [T18D] | 2.95
57 | YCSIKCQQEHWHAEHKRNCRRKR [T18N] | 3.18
58 | YCSIKCQQEHWHAEHKRSCRRKR [T18S] | 2.56
59 | YCSIKCQQEHWHAEHKRGCRRKR [T18G] | 2.39
60 | YCSIKCQQEHWHAEHKRWCRRKR [T18W] | 2.16
61 | YCSIKCQQEHWHAEHKRLCRRKR [T18L] | 1.27
62 | YCSIKCQQEHWHAEHKRECRRKR [T18E] | 2.56
63 | YCSIKCQQEHWHAEHKRVCRRKR [T18V] | 1.61
64 | YCSIKCQQEHWHAEHKRFCRRKR [T18F] | 2.47
65 | YCSIKCQQEHWHAEHKRACRRKR [T18A] | 2.36
66 | YCSIKCQQEHWHAEHKRMCRRKR [T18M] | 1.91
67 | YCSIKCQQEHWHAEHKRQCRRKR [T18Q] | 3.08
68 | YCSIKCQQEHWHAEHKRRCRRKR [T18R] | 2.29
69 | YCSIKCQQEHWHAEHKRYCRRKR [T18Y] | 2.45
70 | YCSIKCQQEHWHAEHKRICRRKR [T18I] | 2.76
71 | YCSIKCQQEHWHAEHKRCCRRKR [T18C] | 2.85
72 | YCSIKCQQEHWHAEHKRKCRRKR [T18K] | 2.84
73 | YCSIKCQQEHWHAEHKRHCRRKR [T18H] | 2.5
74 | YCSIKCQQEHWHAEHKRPCRRKR [T18P] | 2.08
75 | YCSIKCQQEHWHAEHKRTCRRKF [R23F] | 1.58
76 | YCSIKCQQEHWHAEHKRTCRRKM [R23M] | 2.15
77 | YCSIKCQQEHWHAEHKRTCRRKA [R23A] | 2.28
78 | YCSIKCQQEHWHAEHKRTCRRKY [R23Y] | 1.41

Row | Variant | protein stability index
79 | YCSIKCQQEHWHAEHKRTCRRKT [R23T] | 2.26
80 | YCSIKCQQEHWHAEHKRTCRRKW [R23W] | 4.23
81 | YCSIKCQQEHWHAEHKRTCRRKQ [R23Q] | 3.2
82 | YCSIKCQQEHWHAEHKRTCRRKD [R23D] | 1.86
83 | YCSIKCQQEHWHAEHKRTCRRKH [R23H] | 2.26
84 | YCSIKCQQEHWHAEHKRTCRRKG [R23G] | 5.07
85 | YCSIKCQQEHWHAEHKRTCRRKN [R23N] | 2.09
86 | YCSIKCQQEHWHAEHKRTCRRKV [R23V] | 1.26
87 | YCSIKCQQEHWHAEHKRTCRRKC [R23C] | 2.04
88 | YCSIKCQQEHWHAEHKRTCRRKK [R23K] | 2.11
89 | YCSIKCQQEHWHAEHKRTCRRKP [R23P] | 3.21
90 | YCSIKCQQEHWHAEHKRTCRRKL [R23L] | 2.2
91 | YCSIKCQQEHWHAEHKRTCRRKS [R23S] | 2.64
92 | YCSIKCQQEHWHAEHKRTCRRKE [R23E] | 2.77
93 | YCSIKCQQEHWHAEHKRTCIRKR [R20I] | 1.35
94 | YCSIKCQQEHWHAEHKRTCTRKR [R20T] | 3.02
95 | YCSIKCQQEHWHAEHKRTCQRKR [R20Q] | 1.51
96 | YCSIKCQQEHWHAEHKRTCSRKR [R20S] | 1.99
97 | YCSIKCQQEHWHAEHKRTCGRKR [R20G] | 2.65
98 | YCSIKCQQEHWHAEHKRTCPRKR [R20P] | 1.89
99 | YCSIKCQQEHWHAEHKRTCNRKR [R20N] | 2.02
100 | YCSIKCQQEHWHAEHKRTCFRKR [R20F] | 3.4
101 | YCSIKCQQEHWHAEHKRTCVRKR [R20V] | 2.8
102 | YCSIKCQQEHWHAEHKRTCWRKR [R20W] | 1.98
103 | YCSIKCQQEHWHAEHKRTCYRKR [R20Y] | 2.28
104 | YCSIKCQQEHWHAEHKRTCDRKR [R20D] | 1.76

Row | Variant | protein stability index
105 | YCSIKCQQEHWHAEHKRTCKRKR [R20K] | 1.72
106 | YCSIKCQQEHWHAEHKRTCLRKR [R20L] | 2.17
107 | YCSIKCQQEHWHAEHKRTCCRKR [R20C] | 2
108 | YCSIKCQQEHWHAEHKRTCHRKR [R20H] | 2.2
109 | YCSIKCQQEHWHAEHKRTCARKR [R20A] | 2.33
110 | YCSIKCQQEHWHAEWKRTCRRKR [H15W] | 1.69
111 | YCSIKCQQEHWHAEVKRTCRRKR [H15V] | 1.24
112 | YCSIKCQQEHWHAETKRTCRRKR [H15T] | 2.41
113 | YCSIKCQQEHWHAESKRTCRRKR [H15S] | 2.44
114 | YCSIKCQQEHWHAEYKRTCRRKR [H15Y] | 2.01
115 | YCSIKCQQEHWHAEHKRTCRRAR [K22A] | 1.83
116 | YCSIKCQQEHWHAEHKRTCRRMR [K22M] | 1.55
117 | YCSIKCQQEHWHAEHKRTCRRVR [K22V] | 2.15
118 | YCSIKCQQEHWHAEHKRTCRRCR [K22C] | 2.6
119 | YCSIKCQQEHWHAEHKRTCRRRR [K22R] | 1.79
120 | YCSIKCQQEHWHAEHKRTCRRLR [K22L] | 2.02
121 | YCSIKCQQEHWHAEHKRTCRRYR [K22Y] | 1.53
122 | YCSIKCQQEHWHAEHKRTCRRWR [K22W] | 2.97
123 | YCSIKCQQEHWHAEHKRTCRRQR [K22Q] | 2.64
124 | YCSIKCQQEHWHAEHKRTCRRFR [K22F] | 2.13
125 | YCSIKCQQEHWHAEHKRTCRRER [K22E] | 2.41
126 | YCSIKCQQEHWHAEHKRTCRRSR [K22S] | 3.04
127 | YCSIKCQQEHWHAEHKRTCRRDR [K22D] | 1.85
128 | YCSIKCQQEHWHAEHKRTCRRHR [K22H] | 1.74
129 | YCSIKCQQEHWHAEHKRTCRRTR [K22T] | 1.91
130 | YCSIKCQQEHWHAEHKRTCRRPR [K22P] | 1.94

Row | Variant | protein stability index
131 | YCSIKCQQEHWHAEHKRTCRRIR [K22I] | 2.37
132 | YCSIKCQQEHWHAEHKRTCRRGR [K22G] | 2.33
133 | YCSIKCQQEHWHAEHKRTCRRNR [K22N] | 1.37
134 | YCSIKCQQEHWHAEHKRTRRRKR [C19R] | 2.76
135 | YCSIKCQQEHWHAEHKRTVRRKR [C19V] | 2.48
136 | YCSIKCQQEHWHAEHKRTHRRKR [C19H] | 2.71
137 | YCSIKCQQEHWHAEHKRTSRRKR [C19S] | 2.82
138 | YCSIKCQQEHWHAEHKRTQRRKR [C19Q] | 2.19
139 | YCSIKCQQEHWHAEHKRTWRRKR [C19W] | 1.98
140 | YCSIKCQQEHWHAEHKRTYRRKR [C19Y] | 3.63
141 | YCSIKCQQEHWHAEHKRTTRRKR [C19T] | 2.77
142 | YCSIKCQQEHWHAEHKRTIRRKR [C19I] | 2.72
143 | YCSIKCQQEHWHAEHKRTKRRKR [C19K] | 2.3
144 | YCSIKCQQEHWHAEHKRTMRRKR [C19M] | 2.41
145 | YCSIKCQQEHWHAEHKRTFRRKR [C19F] | 2.24
146 | YCSIKCQQEHWHAEHKRTPRRKR [C19P] | 3.4
147 | YCSIKCQQEHWHAEHKRTLRRKR [C19L] | 2.83
148 | YCSIKCQQEHWHAEHKRTNRRKR [C19N] | 2.21
149 | YCSIKCQQEHWHAEHKRTGRRKR [C19G] | 2.71
150 | YCSIKCQQEHWHAEHKRTERRKR [C19E] | 2.75
151 | YCSIKCQQEHWHAEHKRTARRKR [C19A] | 2.84
152 | YCSIKCQQEHWHAEHKRTDRRKR [C19D] | 3.46
